The target in this assay is TCRβ chain of the 5c.c7 TCR (Vβ3) (mouse (T-cells of 5c.c7 TCR transgenic mice)). Kind of assay: FRET or BRET. On the technique in general: Bioluminescence resonance energy transfer reports proximity on the nanometre scale.

Turning to “CD3ε (from UniProt P22646 22-189) (natural protein)”, the FRET yield is 25%.

Source of the values: publication PMC7612939.
